Our source for the Ka, koff and kon values is patent publication US20180044401A1 (KANEKA, published 2018).

For test [1], the target named is T1, IgG-Fab prepared from anti-EGFR monoclonal antibody (Erbitux).
T1 construct: Chimeric antibody; also called Anti-EGFR antibody - Fab
The test can be described thus: SPR Biacore 3000, Fab immobilized on CM5, peptide at 25, 100, 400 nM, 1:1 model. On the procedure:
(§1) The affinity of the peptide obtained in the above-described Example 1(2) for the Fc region and Fab region of anti-RSV monoclonal antibody was evaluated using a biosensor Biacore3000 (manufactured by GE Healthcare Bioscience) utilizing surface plasmon resonance. In the present Example, the IgG-Fc or IgG-Fab obtained in the above-described Example 2(1) was immobilized on a sensor tip, and the peptide was flown on the tip to detect the interaction between the two. The IgG-Fab or IgG-Fc was immobilized on a sensor tip CM5 by amine coupling method using N-hydroxysuccinimide (NHS) and N-ethyl-N′-(3-dimethylaminopropyl)carbodiimide hydrochloride (EDC), and ethanolamine was used for blocking. All of the sensor tip and reagents for immobilization was manufactured by GE Healthcare Bioscience. The IgG-Fab solution was diluted to about 10 times using a buffer for immobilization (10 mM AcOH—AcONa, pH 4.5), and the IgG-Fab was immobilized on the sensor tip in accordance with the protocol attached to the Biacore 3000. In addition, a reference cell as negative control was also prepared by activating another flow cell on the tip with EDC/NHS and then immobilizing ethanolamine only. […] Each peptide solution was added to the sensor tip in a flow rate of 40 μL/min for 1 minute. Bonding response curves at the time of addition (association phase, 1 minute) and after the addition (dissociation phase, 1 minute) were sequentially obtained at a measurement temperature of 25° C. After each measurement, about 20 mM NaOH was added for wash.
(§2) Also, the affinity of the peptide according to the present invention (SEQ ID NO: 2) for IgG-Fab prepared from anti-EGFR monoclonal antibody (“Erbitux” sold by Bristol-Myers Squibb) and anti-TNFα monoclonal antibody (“Remicade” sold by Mitsubishi Tanabe Pharma Corporation) was evaluated.
(Surface plasmon resonance follows binding to a sensor surface in real time, without labels.)

The target in test [2] is T2, IgG-Fab prepared from anti-TNFα monoclonal antibody (Remicade).
T2 construct: Chimeric antibody; also called Anti-TNFα antibody - Fab; IgG-Fab of anti-TNFα monoclonal antibody
The test is described as above. How it is done: as §1, §2

Test [3] concerns the target T3, IgG-Fab derived from anti-RSV monoclonal antibody (Palivizumab).
T3 construct: Humanized monoclonal IgG fragmented with papain; Immobilized on a CM5 sensor tip; also called Anti-RSV antibody - Fab; Synagis Fab fragment
Put plainly: SPR Biacore 3000, Fab immobilized on CM5, peptide flown, 25° C., pH 7.4, 1:1 model. How it is done:
(§3) The affinity of the peptide obtained in the above-described Example 1(2) for the Fc region and Fab region of anti-RSV monoclonal antibody was evaluated using a biosensor Biacore3000 (manufactured by GE Healthcare Bioscience) utilizing surface plasmon resonance. In the present Example, the IgG-Fc or IgG-Fab obtained in the above-described Example 2(1) was immobilized on a sensor tip, and the peptide was flown on the tip to detect the interaction between the two. The IgG-Fab or IgG-Fc was immobilized on a sensor tip CM5 by amine coupling method using N-hydroxysuccinimide (NHS) and N-ethyl-N′-(3-dimethylaminopropyl)carbodiimide hydrochloride (EDC), and ethanolamine was used for blocking. All of the sensor tip and reagents for immobilization was manufactured by GE Healthcare Bioscience. The IgG-Fab solution was diluted to about 10 times using a buffer for immobilization (10 mM AcOH—AcONa, pH 4.5), and the IgG-Fab was immobilized on the sensor tip in accordance with the protocol attached to the Biacore 3000. In addition, a reference cell as negative control was also prepared by activating another flow cell on the tip with EDC/NHS and then immobilizing ethanolamine only. Peptide solutions having concentrations of 16 nM, 64 nM or 256 nM were prepared using a running buffer (20 mM NaH₂PO₄—Na₂HPO₄, 150 mM NaCl, 0.005% P-20, pH 7.4). Each peptide solution was added to the sensor tip in a flow rate of 40 μL/min for 1 minute. Bonding response curves at the time of addition (association phase, 1 minute) and after the addition (dissociation phase, 1 minute) were sequentially obtained at a measurement temperature of 25° C. After each measurement, about 20 mM NaOH was added for wash.

The target of test [4] is T4, IgG-Fc derived from anti-RSV monoclonal antibody (Palivizumab) (human, UniProt P01857-1 108-330 = IgG part, limits assumed).
T4 construct: domain: Fc region; Immobilized on a CM5 sensor tip by amine coupling; also called Anti-RSV antibody - Fc; Synagis Fc fragment
Put plainly: SPR Biacore 3000, Fc immobilized on CM5, peptide flown, 25° C., pH 7.4, 1:1 model. On the procedure:
as §3

B1: immunoglobulin G-binding peptide having the amino acid sequence of SEQ ID NO: 2 (designed binder)
chain: GPLGSTTYKLILNGKTLTGYTTAIAADAATAEIVLKQFANDNGIDGEWTYDDATKTFTVTE
notes: Expressed as a GST fusion in E. coli; GST was cleaved off with PreScission Protease before the assay; also called SpG mutant
For the molecule B1, the Ka in test [1] was 6.5e+07 M⁻¹; in test [2], 4e+07 M⁻¹; in test [3] it was 2e+07 M⁻¹; in test [4] it was 3.5e+06 M⁻¹. Moreover, the koff – broadly, the rate constant with which the complex falls apart – in test [1] turned out to be 0.039 s⁻¹; in test [2] it was 0.01 s⁻¹; in test [3], 0.003 s⁻¹; in test [4], 0.028 s⁻¹. For the same molecule, the kon (in general, a measure of how fast the partners come together) in test [1] was 252000 M⁻¹ s⁻¹; in test [2], 413000 M⁻¹ s⁻¹; in test [3], 66000 M⁻¹ s⁻¹; in test [4] it was 97000 M⁻¹ s⁻¹.
